One may read the Kd as the equilibrium constant for the complex coming apart. Lower therefore signals a tighter complex.

We go through 38 molecules from US20200095340A1.

The target in the experiment is biotinylated human DLL3 protein expressed as a human IgG1 fusion protein (human) (UniProt Q9NYJ7). In words: Octet BLI; biotinylated huDLL3-IgG1 fusion on streptavidin tips; single 50 nM; conditioned medium. (BLI is a label-free optical method that tracks binding on a fibre tip over time.)

Where a chain is given by its changes, count along the chain named.

Chain of biotinylated human DLL3 protein expressed as a human IgG1 fusion protein (human) (Q9NYJ7 other isoform, or with tags, fused parts or gaps): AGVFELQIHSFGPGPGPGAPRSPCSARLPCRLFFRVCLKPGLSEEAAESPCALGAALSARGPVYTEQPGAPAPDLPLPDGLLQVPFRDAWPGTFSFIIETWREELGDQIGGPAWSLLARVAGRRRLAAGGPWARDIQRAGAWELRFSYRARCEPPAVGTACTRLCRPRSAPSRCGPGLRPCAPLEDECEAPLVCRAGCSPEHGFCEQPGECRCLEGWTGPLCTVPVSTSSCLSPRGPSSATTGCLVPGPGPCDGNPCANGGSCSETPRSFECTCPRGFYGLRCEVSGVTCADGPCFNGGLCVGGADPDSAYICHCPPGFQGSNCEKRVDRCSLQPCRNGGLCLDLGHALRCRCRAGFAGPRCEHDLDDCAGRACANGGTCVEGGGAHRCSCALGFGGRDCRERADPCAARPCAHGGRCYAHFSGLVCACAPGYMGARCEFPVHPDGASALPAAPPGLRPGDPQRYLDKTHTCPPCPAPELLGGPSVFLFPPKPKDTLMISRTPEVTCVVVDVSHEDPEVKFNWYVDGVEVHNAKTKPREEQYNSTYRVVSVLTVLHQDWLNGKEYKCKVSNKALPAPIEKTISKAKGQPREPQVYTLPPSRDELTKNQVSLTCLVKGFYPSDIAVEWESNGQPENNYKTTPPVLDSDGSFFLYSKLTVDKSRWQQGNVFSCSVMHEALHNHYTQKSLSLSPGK

B1: anti-DLL3 trispecific protein 2E011 (protein, part only; not given: CD3 binder and albumin binder, part only)
chain, part: EVQLVESGGGLVQPGGSLTLSCVASGSTSSINAIGWYRRAPGKQRELVAGISSDGSSVYADSVKGRFTISRDNAKNSVYLQMNSLRAEDTAVYYCYYFRRVSGSSMRYWGQGTLVTVSSGGGGSGGGSGGGGSGGGSHHHHHH
As to B1, the Kd was found to be 2.4 nM. This lies in the single-digit nanomolar range.

B2: anti-DLL3 trispecific protein 1D010 (protein, part only; not given: anti-CD3 and anti-albumin domains, part only)
chain, part: B1 chain, part with I31N, I34M, G35A, S57K, A60T, R100T, V101R
In turn, B2 had a Kd of 5 nM.

B3: anti-DLL3 trispecific protein 1H012 (protein, part only; not given: anti-CD3 fragment and anti-albumin sdAb, part only)
chain, part: B1 chain, part with I34M, S57K, A60V, R100T, R107P
Turning to B3, the Kd turned out to be 3.5 nM.

B4: anti-DLL3 trispecific protein 2C02 (protein, part only; not given: CD3 binder and albumin binder, part only)
chain, part: B1 chain, part with I34V, S57K, A60V, R100T, S102Y
The molecule B4 displayed a Kd of 4.1 nM.

B5: anti-DLL3 trispecific protein 1C01 (protein, part only; not given: anti-CD3 and anti-albumin domains, part only)
chain, part: B1 chain, part with I34M, S57K, A60R, R100T, R107G
Regarding B5, the Kd worked out at 4.3 nM.

B6: anti-DLL3 trispecific protein 2H02 (protein, part only; not given: anti-CD3 and anti-albumin domains, part only)
chain, part: B1 chain, part with I34M, G35A, V48A, S57K, R99H, R100T
Molecule B6 came in with a Kd of 4.4 nM.

B7: anti-DLL3 trispecific protein 1B01 (protein, part only; not given: anti-CD3 fragment and anti-albumin sdAb, part only)
chain, part: B1 chain, part with S30I, I34M, V48A, S57K, Y59I
Molecule B7 returned a Kd of 5.2 nM.

B8: anti-DLL3 trispecific protein 1E09 (protein, part only; not given: CD3 fragment and albumin sdAb, part only)
chain, part: B1 chain, part with I34M, G35A, S57K, A60T, R100T, V101R
B8 displayed a Kd of 4.4 nM.

B9: anti-DLL3 trispecific protein 1D011 (protein, part only; not given: anti-CD3 and anti-albumin domains, part only)
chain, part: B1 chain, part with I34M, G35A, G55N, S57K, R100T, S104H
On to B9, for which the Kd came out at 4.4 nM.

B10: anti-DLL3 trispecific protein 2A011 (protein, part only; not given: anti-CD3 and anti-albumin domains, part only)
chain, part: B1 chain, part with S57K, A60S, R100P
For B10, the equilibrium dissociation constant (Kd) was 4 nM. This Kd and that of the molecule before are within 1.5-fold of each other.

B11: anti-DLL3 trispecific protein 2H011 (protein, part only; not given: anti-CD3 fragment and anti-albumin domain, part only)
chain, part: B1 chain, part with S30R, I34M, S57K
On to B11, for which the dissociation constant (Kd) came out at 5 nM. This Kd and that of the molecule before are within 1.5-fold of each other.

B12: anti-DLL3 trispecific protein 1E012 (protein, part only; not given: CD3 binder and albumin binder, part only)
chain, part: B1 chain, part with I31T, I34M, S57K, A60V, R100T, R107V
B12 had a Kd of 5.3 nM. This Kd and that of the molecule before are within 1.5-fold of each other.

B13: anti-DLL3 trispecific protein 2E05 (protein, part only; not given: CD3 fragment and albumin sdAb, part only)
chain, part: B1 chain, part with T28P, I34Y, S57K, A60S, R100T, R107S
B13 gave a Kd of 3.9 nM.

B14: anti-DLL3 trispecific protein 2E010 (protein, part only; not given: anti-CD3 and anti-albumin domains, part only)
chain, part: B1 chain, part with I34M, G35A, S57K, R99H, R100T
The molecule B14 came in with a Kd of 4 nM.

B15: anti-DLL3 trispecific protein 1A012 (protein, part only; not given: CD3 binder and albumin binder, part only)
chain, part: B1 chain, part with I34M, G35A, S57K, A60S, R100T, S102L
In the case of B15, the Kd came out at 4.9 nM. The Kd values of the last two molecules are within 1.5-fold of each other.

B16: anti-DLL3 trispecific protein 1C010 (protein, part only; not given: CD3 binder and albumin binder, part only)
chain, part: B1 chain, part with S30R, I34M, I51V, S57K, R100T, R107S
Consider B16, for which the Kd turned out to be 2.5 nM.

B17: anti-DLL3 trispecific protein 1A05 (protein, part only; not given: CD3 fragment and albumin sdAb, part only)
chain, part: B1 chain, part with T28P, I34M, V48S, S57K, R100T, S102R, R107S
Molecule B17 registered a dissociation constant Kd of 4 nM.

B18: anti-DLL3 trispecific protein 1A011 (protein, part only; not given: anti-CD3 and anti-albumin domains, part only)
chain, part: B1 chain, part with S57K, A60I, R100T, M106Y
Consider B18, for which the Kd was 3.7 nM. This Kd and that of the molecule before are within 1.5-fold of each other.

B19: anti-DLL3 trispecific protein 1D09 (protein, part only; not given: anti-CD3 and anti-albumin domains, part only)
chain, part: B1 chain, part with I34M, G35A, S57K, A60T, R100T, V101I
For B19, the equilibrium dissociation constant (Kd) came out at 5.2 nM. The Kd values of the last two molecules are within 1.5-fold of each other.

B20: anti-DLL3 trispecific protein 1E011 (protein, part only; not given: anti-CD3 and anti-albumin domains, part only)
chain, part: B1 chain, part with S27N, I34M, S57K, A60Y, R100T, S102R, M106Q
For the molecule B20, the Kd worked out at 2.7 nM.

B21: anti-DLL3 trispecific protein 2D012 (protein, part only; not given: anti-CD3 fragment and anti-albumin sdAb, part only)
chain, part: B1 chain, part with S27K, I34M, S57K, A60T, R100T, V101R
Consider B21, for which the Kd was 4.9 nM.

B22: anti-DLL3 trispecific protein 1F011 (protein, part only; not given: anti-CD3 fragment and anti-albumin sdAb, part only)
chain, part: B1 chain, part with S57K, R100T, S102K
B22 showed a Kd of 5 nM.

B23: anti-DLL3 trispecific protein 1F02 (protein, part only; not given: CD3 binder and albumin binder, part only)
chain, part: B1 chain, part with I34M, G35A, V48A, G55Q, S57K, V63A, R100T, R107S
Consider B23, for which the Kd was 4 nM.

B24: anti-DLL3 trispecific protein 2G08 (protein, part only; not given: anti-CD3 and anti-albumin domains, part only)
chain, part: B1 chain, part with S30Y, I34M, S57K, R100T, S104Q, R107G
B24 came in with a Kd of 4.1 nM.

B25: anti-DLL3 trispecific protein 3H011 (protein, part only; not given: CD3 fragment and albumin sdAb, part only)
chain, part: EVQLVESGGGLVQPGGSLTLSCAASGSSVKFLSMAWYRQAPGKKRELVAGISADGSTVYIDSVKGRFTISRDNAKNSVYLQMNSLRAEDTAVYYCYAYRWPTRYTYWGQGTLVTVSSGGGGSGGGSGGGGSGGGSHHHHHH
The molecule B25 returned a Kd of 2.7 nM.

B26: anti-DLL3 trispecific protein 4D09 (protein, part only; not given: CD3 binder and albumin binder, part only)
chain, part: B25 chain, part with V58D, D61L, R99E, P101T
The molecule B26 yielded a Kd of 4.7 nM.

B27: anti-DLL3 trispecific protein 3C03 (protein, part only; not given: anti-CD3 fragment and anti-albumin sdAb, part only)
chain, part: B25 chain, part with K30R, A53R, P101T, Y104G
Molecule B27 came in with a Kd of 4.9 nM.

B28: anti-DLL3 trispecific protein 4G01 (protein, part only; not given: CD3 binder and albumin binder, part only)
chain, part: B25 chain, part with K30R
B28 displayed a Kd of 3.6 nM.

B29: anti-DLL3 trispecific protein 4D01 (protein, part only; not given: CD3 binder and albumin binder, part only)
chain, part: B25 chain, part with K30R, P101T, Y104R
In turn, B29 had a dissociation constant Kd of 3.7 nM.

B30: anti-DLL3 trispecific protein 3F010 (protein, part only; not given: CD3 fragment and albumin sdAb, part only)
chain, part: B25 chain, part with G26Y, K30S, F31R, P101T, Y104N
For the molecule B30, the Kd was 4.4 nM.

B31: anti-DLL3 trispecific protein 3D011 (protein, part only; not given: CD3 binder and albumin binder, part only)
chain, part: B25 chain, part with K30S, F31R, T57R, V58D, P101T, T105K
As for B31, the Kd was 5.3 nM.

B32: anti-DLL3 trispecific protein 4B07 (protein, part only; not given: anti-CD3 fragment and anti-albumin sdAb, part only)
chain, part: B25 chain, part with K30G, P101T
Turning to B32, the Kd is 4.3 nM.

B33: anti-DLL3 trispecific protein 4B011 (protein, part only; not given: CD3 fragment and albumin sdAb, part only)
chain, part: B25 chain, part with K30T, P101T, Y104G
B33 displayed a Kd of 3.9 nM.

B34: anti-DLL3 trispecific protein 4E02 (protein, part only; not given: CD3 binder and albumin binder, part only)
chain, part: B25 chain, part with S28Q, K30S, P101S
Consider B34, for which the Kd was 3.8 nM.

B35: anti-DLL3 trispecific protein 4H011 (protein, part only; not given: anti-CD3 and anti-albumin domains, part only)
chain, part: B25 chain, part with K30S, F31R, A53V, V58D, P101T, Y104L
B35 showed a Kd of 4.5 nM.

B36: anti-DLL3 trispecific protein 4C01 (protein, part only; not given: anti-CD3 fragment and anti-albumin sdAb, part only)
chain, part: B25 chain, part with K30R, P101K
With B36, the Kd is 5.1 nM.

B37: anti-DLL3 trispecific protein 3C04 (protein, part only; not given: anti-CD3 and anti-albumin domains, part only)
chain, part: B25 chain, part with S28H, K30S, S56P, V58D, P101D
In turn, B37 returned a Kd of 4.5 nM.

B38: anti-DLL3 trispecific protein 2E01 (protein, part only; not given: anti-CD3 and anti-albumin domains, part only)
chain, part: EVQLVESGGGLVQPGGSLTLSCVASGSTSSINAMGWYRRAPFKQGELPAGISPDGTKAYADSAKVRFTISRDNAKNSVYLQMNSLRAEDTAVYYCYYFHTVCGTSMGYWGQGTLVTVSSGGGGSGGGSGGGGSGGGSHHHHHH
For the molecule B38, the Kd was 4.1 nM.
